System: small intestinal immune cells
Test: Droplet-based scRNA-seq of small intestinal immune cells (LP and PP), OVA vs PBS, clustering and differential expression
Format: in vivo, mouse
Conditions: PP; cluster ID 8; OVA vs PBS
Description: To comprehensively characterize small intestinal immune cells, Applicants generated scRNA-Seq profiles for 58,067 immune cells collected from lamina propria (LP) and Peyer's patch (PP) regions at steady state and after induction of a type 2 inflammatory reaction to ovalbumin (OVA) (Brandt et al., 2003) (FIGS. 1A and 8A). To ensure sufficient representation of rare cells, Applicants combined a normalization strategy—removing by flow sorting either a portion of IgD+ naïve B cells, which are the most abundant cell type in PPs, or all CD19+ and CD3+ T cells (FIG. 8B, Methods)—with profiling of a sufficiently large number of cells number (P>0.99 to recover at least 15 cells from each cluster, Methods) by massively parallel scRNA-seq (Haber et al., 2017) (Methods). Applicants obtained 36,797 and 21,270 high quality cells passing initial filtering (Methods) from PP and LP regions, respectively.
Overall, Applicants annotated 27 cell subsets across the two compartments, spanning T cells, B cells, ILCs, dendritic cells (DCs), myeloid cells and stromal cells, in frequencies ranging from 0.07% to 14%. Briefly, Applicants first partitioned the cells from the PP regions by unsupervised clustering (Methods) into 46 clusters, retained the 97% of cells that were robustly assigned cell identities in each cluster (Methods), assigned the cells from the LP regions to the 46 clusters using a classifier (Methods), and visualized the data with scvis (Ding et al., 2018), a deep generative model-based method (FIGS. 1B and 8C, Methods). Next, Applicants identified genes that were differentially expressed between the cells in each cluster and the remaining cells (Table 1, Methods), as well as between pairs of clusters (Table 2), to elucidate identities of similar cell types/states. Applicants excluded from downstream analysis clusters mostly consisting of contaminants from epithelium, likely doublets, or cells with a small number of Unique Molecular Identifiers (UMIs) (FIGS. 1C and 8D), or lacking distinct markers (Methods). Altogether, Applicants retained 27 clusters spanning 85% of the cells and each associated with distinct marker genes (FIG. 8E, Methods).
To induce allergic reaction to OVA, 6 to 7 weeks old mice were sensitized twice, two weeks apart, with 50 μg of OVA plus 1 mg of aluminum potassium sulfate adjuvant via intraperitoneal injection. Two weeks later, mice were orally administered with 50 mg of OVA on every other day for a total of five times. 1 μg of α-CGRP peptide was administered simultaneously when indicated. Mice were deprived of food for 3-4 hours in cages with wood chip bedding for limiting antigen degradation in the stomach before each intragastric challenge.
Isolation of cells from Peyer's patches (PPs). Peyer's patches (PPs) were carefully dissected from the small intestine under a stereo microscope using a fine scissor, pierced once with a fine forcep. Tissues were digested in freshly made digestion buffer (RPMI-1640 containing 100 μg/ml Liberase™ and 50 μg/ml DNase I at 37° C. on a roto-mixer. After 15 min, tissues were very gently mixed using a 1 ml pipette. The supernatant was collected and added to ice-cold MACS buffer (pH 7.4; PBS plus 2% FCS and 2 mM EDTA). Pre-warmed (37° C.) fresh digestion buffer was added to the remaining tissues. After rotation at 37° C. for 15 min, the mixture was vigorously mixed using a 1 ml pipette for 1 min. Supernatants from the two steps were combined and passed through 70 μm filters and stained for FACS (below).
Isolation of cells from the lamina propria (LP). The small intestines were opened longitudinally and washed in ice-cold PBS. For scRNA-seq, roughly 0.5 cm of fragments from each of the distal, middle and proximal regions without visible PPs were collected. Epithelial cells were dissociated by tissue rotation in pre-warmed (37° C.) PBS containing 10 mM EDTA at 37° C. for 15 min, followed by additional incubation on ice for 15 min. Tissues were then shaken vigorously. […]

B1: OVA (protein, UniProt P01012 2-386, looked up)
Ovalbumin: GSIGAASMEFCFDVFKELKVHHANENIFYCPIAIMSALAMVYLGAKDSTRTQINKVVRFDKLPGFGDSIEAQCGTSVNVHSSLRDILNQITKPNDVYSFSLASRLYAEERYPILPEYLQCVKELYRGGLEPINFQTAADQARELINSWVESQTNGIIRNVLQPSSVDSQTAMVLVNAIVFKGLWEKAFKDEDTQAMPFRVTEQESKPVQMMYQIGLFRVASMASEKMKILELPFASGTMSMLVLLPDEVSGLEQLESIINFEKLTEWTSSNVMEERKIKVYLPRMKMEEKYNLTSVLMAMGITDVFSSSANLSGISSAESLKISQAVHAAHAEINEAGREVVGSAEAGVDAASVSEEFRADHPFLFCIKHIATNAVLFFGRCVSP
  Fosl2 LN (average fold change): −0.358
  Ftl1 LN (average fold change): −0.171
  Gadd45b LN (average fold change): −0.563
  Gimap1 LN (average fold change): 0.283
  Gimap6 LN (average fold change): 0.272
  Gimap9 LN (average fold change): 0.367
  Gnai2 LN (average fold change): −0.261
  Gramd1a LN (average fold change): 0.460
  Gramd3 LN (average fold change): −0.502
  Gzma LN (average fold change): 0.340
  H2-K1 LN (average fold change): 0.192
  H3f3b LN (average fold change): −0.185
  Hcst LN (average fold change): 0.174
  Hist1h1c LN (average fold change): 0.586
  Hist1h1e LN (average fold change): 1.277
  Icam1 LN (average fold change): −0.819
  Id2 LN (average fold change): 0.467
  Ier2 LN (average fold change): −0.235
  Ier5l LN (average fold change): −1.422
  Ifi203 LN (average fold change): 0.402
  Ifrd1 LN (average fold change): −0.708
  Igha LN (average fold change): 0.514
  Igkc LN (average fold change): 0.390
  Ikzf2 LN (average fold change): −0.467
  Il2rg LN (average fold change): −0.226
  Il16 LN (average fold change): 0.455
  Jun LN (average fold change): 0.210
  Jund LN (average fold change): −0.703
  Kdm2b LN (average fold change): −0.379
  Kdm6b LN (average fold change): −0.833
  Klf4 LN (average fold change): −0.524
  Klf6 LN (average fold change): 0.166
  Klrb1c LN (average fold change): 0.233
  Klrb1f LN (average fold change): 0.487
  Klrc1 LN (average fold change): 0.392
  Klrc2 LN (average fold change): 0.396
  Klrd1 LN (average fold change): 0.261
  Klre1 LN (average fold change): 0.295
  Klrk1 LN (average fold change): 0.213
  Lax1 LN (average fold change): 0.486
  Litaf LN (average fold change): −0.518
  Lmna LN (average fold change): −1.022
  Maff LN (average fold change): −0.445
  Mcpt1 LN (average fold change): 1.756
  Mir142hg LN (average fold change): −0.715
  Ms4a4b LN (average fold change): 0.271
  Ms4a6b LN (average fold change): 0.490
  Myl6 LN (average fold change): 0.199
  Nabp1 LN (average fold change): −0.167
  Ncr1 LN (average fold change): 0.265
  Ndel1 LN (average fold change): −0.337
  Neat1 LN (average fold change): 0.275
  Neurl3 LN (average fold change): −0.244
  Nfil3 LN (average fold change): 0.490
  Nfkb1 LN (average fold change): −0.244
  Nfkbia LN (average fold change): −0.579
  Nfkbid LN (average fold change): −1.010
  Nfkbie LN (average fold change): −0.483
  Nfkbiz LN (average fold change): −0.640
  Ninj1 LN (average fold change): −0.512
  Nkg7 LN (average fold change): 0.194
  Nr4a1 LN (average fold change): −0.415
  Nr4a2 LN (average fold change): −0.530
  Nr4a3 LN (average fold change): −0.808
  Odc1 LN (average fold change): −0.540
  P2ry10 LN (average fold change): −0.196
  Phlda1 LN (average fold change): −0.867
  Pim1 LN (average fold change): −0.358
  Pnrc1 LN (average fold change): −0.302
  Ppp1r15a LN (average fold change): −0.355
  Ppp1r16b LN (average fold change): −0.367
  Ppp3cc LN (average fold change): 0.528
  Prr7 LN (average fold change): −0.910
  Ptp4a2 LN (average fold change): −0.243

Source: patent US20220143148A1, “COMPOSITIONS AND METHODS FOR MODULATING CGRP SIGNALING TO REGULATE INTESTINAL INNATE LYMPHOID CELLS” (The Broad Institute, Inc., priority 2019, published 2022)
